{"source": "paper doi:10.1101/2021.05.06.443019", "biological_target": "ovine rBAT (purified with b^0,+AT) (ovine)", "test": "cryo-EM structure"}
{"substance": "ovine rBAT (purified with b^0,+AT) (from UniProt A0ACI6R3A5 1-685) (natural protein)", "values": [{"measurement": "stoichiometry N", "result": 2}]}
